Results from patent US20200140551A1.

Experiments:
human ICOS (human) = human ICOS (human) (UniProt Q9Y6W8); experiment: Biacore (SPR), human ICOS; format not described
[1] = target: cynomolgus ICOS (cynomolgus); experiment: Biacore (SPR), cyno ICOS; format not described
Sequence of cynomolgus ICOS (cynomolgus) (A0A2K5 entry or part of it limits assumed): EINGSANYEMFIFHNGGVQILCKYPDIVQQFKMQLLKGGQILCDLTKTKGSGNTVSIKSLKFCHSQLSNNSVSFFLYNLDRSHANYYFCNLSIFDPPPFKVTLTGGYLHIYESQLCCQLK

Sequence of human ICOS (human) (Q9Y6W8 21-140 limits assumed): as the sequence (A0A2K5 entry or part of it limits assumed) above, with R81H counted along it

B1: murine anti-human ICOS mAb clone 314.8 (antibody, from another filing, V domains shown)
VH: QVQLQQPGTELMKPGASVKLSCKASGYTFTTYWMHWVKQRPGQGLEWIGEIDPSDSYVNYNQNFKGKATLTVDKSSSTAYIQLSSLTSEDSAVYFCARSPDYYGTSLAWFDYWGQGTLVTVST
VL: DIVMTQAAPSVPVTPGESVSISCRSSKSPLHSNGNIYLYWFLQRPGQSPQLLIYRMSNLASGVPDRFSGSGSGTTFTLKISRVEAEDVGVYYCMQHLEYPYTFGGGTKLEIK
Kd (human ICOS (human)): 17 nM | Kd [1]: 9.3 nM
